Consider 18 molecules from patent US20050069542A1 (Human Genome Sciences, published 2005).

The experiment addresses T1, flag-tagged soluble TL3 (amino acids 105-251 of SEQ ID NO:234) (Homo sapiens (Human), UniProt O75888 105-250).
T1 construct: Heterologous flag-tagged control protein, immobilized in the ELISA; also called flagged tagged TL-3; not shown: Flag tag
T1 sequence: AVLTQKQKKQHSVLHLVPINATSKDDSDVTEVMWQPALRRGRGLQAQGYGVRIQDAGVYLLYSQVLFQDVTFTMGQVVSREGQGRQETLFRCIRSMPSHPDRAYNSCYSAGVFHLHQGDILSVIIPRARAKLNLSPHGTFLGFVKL
The experiment is described as follows: phage ELISA on immobilized flag-tagged soluble TL3. How it is done:
The individual phage isolates in the panel of phage, each phage expressing a unique scFv that bound to flag-tagged GMAD, were tested to ensure specificity for GMAD using an ELISA assay. The scFvs were tested in an ELISA for their ability to bind a heterologous flag-tagged protein, in this case—immobilized soluble TL3 (amino acids 105-251 of SEQ ID NO:234, GenBank Accesion Number NP_{—}003799, also described in International Patent Application Publication Number WO97/33902 and WO2001/96528 which are herein incorporated by reference in their entireties).
For orientation: An ELISA detects its analyte on a solid surface through an enzyme-linked reagent.

B1: GMBC620 (scFv)
scFv: EVQLVESGGGLVKPGGSLRLSCAASGFTFSDAWMNWVRQAPGKGLEWVGRIKSKGSGGTIDYAAPVKDRFTISRDDSKNTLYLQMNSLKTEDTALYYCTWDWDFYYGMNVWGRGTMVTVSSGGGGSGGGGSGGGGSQSVLTQPASVSGSPGQSITISCTGTSSDVGGYNYVSWYQQHPGKAPKLMIYEGSKRPSGVSNRFSGSKSGNTASLTISGLQAEDEADYYCSSYTTRSTRVFGGGTKLTVLG
On to B1, for which the binding result was “no binding”.

B2: GMBC647 (scFv)
scFv: EVQLVESGGGLVKPGGSLRLSCAASGFTFSDAWMNWVRQAPGKGLEWVGRIKSKGSGGTIDYAAPVKDRFTISRDDSKNTLYLQMNSLKTEDTALYYCTWDWDFYYGMNVWGQGTTVTVSSGGGGSGGGGSGGGGSQSVLTQPASVSGSPGQSITISCTGTSSDVGGYNYVSWYQQHPGKAPKLMIYEGSKRPSGVSNRFSGSKSGNTASLTISGLQAEDEADYYCSSYTTRSTRVFGGGTKLTVLG
For B2, the binding result is reported as “no binding”.

B3: GMBC660 (scFv)
scFv: EVQLVQSGGGLVKPGGSLRLSCAASGFIFSDAWMNWVRQAPGKGLEWVGRIKSKGSGGTIDYAAPVKDRFTISRDDSKNTLYLQMNSLKTEDTALYYCTWDWDFYYGMNVWGQGTPVTVSSGGGGSGGGGSGGGGSQSVLTQPASVSGSPGQSITISCTGTSSDVGGYNYVSWYQQHPGKAPKLMIYEGSKRPSGVSNRFSGSKSGNTASLTISGLQAEDEADYYCSSYTTRSTRVFGGGTKLTVLG
For the molecule B3, the binding result is given as “no binding”.

B4: GMBC676 (scFv)
scFv: EVQLVQSGGGLVQPGGSLRLSCAASGFTFSHAWMNWVRQAPGKGLEWVGRIKSKASGGTIDYAAPVKDRFTISRDDSKNTLYLHMNSLKTEDTALYYCTWDWDFYYGMNVWGRGTMVTVSSGGGGSGGGGSGGGGSQSVLTQPASVSGSPGQPITISCTGTSSDVGGYNYVSWYQQHPGKAPKLMIYEGSKRPSGVSNRFSGSKSGNTASLTISGLQAEDEADYYCSSYTTRSTRVFGGGTKLTVLG
Take B4: the binding result is on record as “no binding”.

B5: GMBC672 (scFv)
scFv: QVQLVQSGGGLVKPGGSLRLSCAASGFTFSDAWMNWVRQAPGKGLEWVGRIKSKGSGGTIDYAAPVKDRFTISRDDSKNTLYLQMNSLKTEDTALYYCTWDWDFYYGMNVWGQGTLVTVSSGGGGSGGGGSGGGGSQSVLTQPASVSGSPGQSITISCTGTSSDVGGYNYVSWYQQHPGKAPKLMIYEGSKRPSGVSNRFSGSKSGNTASLTISGLQAEDEADYYCSSYTTRSTRVFGEGTKLTVLG
As to B5, the binding result was “no binding”.

B6: GMBC684 (scFv)
scFv: QVQLVQSGGGLVKPGGSLRLSCAASGFKFSDAWMNWVRQAPGKGLEWVGRIKSKGSGGTIDYAAPVKDRFTISRDDSKNTLYLQMNSLKTEDTALYYCTWDWDFYYGMNVWGQGTPVTVSSGGGGSGGGGSGGGGSQSALTQPASVSGSPGQSITISCTGTSSDVGGYNYVSWYQQHPGKAPKLMIYEGSKRPSGVSNRFSGSKSGNTASLTISGLQAEDEADYYCSSYTTRSTRVFGGGTKLTVLG
In the case of B6, the binding result was “no binding”.

B7: GMBC664 (scFv)
scFv: EVQLVETGGALVKPGGSLRLSCAASGFTFSDAWMNWVRQAPGKGLEWVGRIKSKGSGGTIDYAAPVKDRFTISRDDSKNTLYLQMNSLKTEDTALYYCTWDWDFYYGMNVWSRGTMVTVSSGGGGSGGGGSGGGGSQSVLTQPASVSGSPGQSITISCTGTSSDVGGYNYVSWYQQHPGKAPKLMIYEGSKRPSGVSNRFSGSKSGNTASLTISGLQAEDEADYYCSSYTTRSTRVFGGGTKLTVLG
For the molecule B7, the binding result is listed as “no binding”.

B8: GMBC658 (scFv)
scFv: EVQLVQSGGGLVKPGGSLRLSCAASGFTFSDAWMNWVRQAPGKGLEWVGRIKSKGSGGTIDYAAPVKDRFTISRDDSKNTLYLQMNSLKTEDTALYYCTWDWDFYYGMNVWGRGTTVTVSSGGGGSGGGGSGGGGSQSVLTQPASVSGSPGQSITISCTGTSSDVGGYNYVSWYQQHPGKAPKLMIYEGSKRPSGVSNRFSGSKSGNTASLTISGLQAEDEADYYCSSYTTRSTRVFGGGTKLTVLG
Regarding B8, the binding result is “no binding”.

B9: GMBC651 (scFv)
scFv: EVQLVESGGGLVQPGGSLRLSCAASGFTFSDAWMNWVRQAPGKGLEWVGRIKSKGSGGTIDYAAPVKDRFTISRDDSKNTLYLQMNSLKTEDTALYYCTWDWDFYYGMNVWGRGTMVTVSSGGGGSGGGGSGGGGSQSVLTQPASVSGSPGQSITISCTGTSSDVGGYNYVSWYQQHPGKAPKLMIYEGSKRPSGVSNRFSGSKSGNTASLTISGLQAEDEADYYCSSYTTRSTRVFGGGTKLTVLG
Regarding B9, the binding result is “no binding”.

B10: GMBC679 (scFv)
scFv: QVQLVESGGGLVKPGGSLRLSCAASGFTFSDAWMNWVRQAPGKGLEWVGRIKSKGSGGTTDYAAPVKDRFTISRDDSENTLYLQMNSLKTEDTAVYYCTWDHSYYYDMAVWGRGTLVTVSSGGGGSGGGGSGGGGSQSVLTQPASVSGSPGQSITISCTGTSSDVGGYNYVSWYQQHPGKAPKLVIYEGSKRPSGVSNRFSGSKSGNTASLTISGLQAEDEADYYCSSYTTRSTRVFGGGTKLTVLG
For B10, the binding result is reported as “no binding”.

B11: GMBC654 (scFv)
scFv: EVQLVETGGGLVEPGGSLRLSCAASGFTFSDAWMNWVRQAPGKGLEWVGRIKSKRSGGTIDYAAPVKDRFTISRDDSKNTLYLQMNSLKIEDTALYYCTWDWDFYYGMNVWGKGTTVTVSSGGGGSGGGGSGGGGSQSVLTQPASVSGSPGQSITISCTGTSSDVGGYNYVSWYQQHPGKAPKLMIYEGSKRPSGVSNRFSGSKSGNTASLTISGLQAEDEADYYCSSYTTRSTRVFGGGTKLTVLG
For B11, the binding result was “no binding”.

B12: GMBC634 (scFv)
scFv: QVQLVQSGGGLVKPGGSLRLSCAASGFTFSDAWMNWVRQAPGKGLEWVGRIKSKGSGGTIDYAAPVKDRFTISRDDSKNTLYLQMNSLKTEDTALYYCTWDWDFYYGMNVWGQGTLVTVSSGGGGSGGGGSGGGGSQSVLTQPASVSGSPGQSITISCTGTSSDVGGYNYVSWYQQHPGKAPKLMIYEGSKRPSGVSNRFSGSKSGNTASLTISGLQAEDEADYYCSSYTTRSTRVFGGGTKLTVLG
With B12, the binding result is listed as “no binding”.

B13: GMBC686 (scFv)
scFv: EVQLVQSGGGLVKPGGSLRLSCAASGFTFSDAWMNWVRQAPGKGLEWVGRIKSKGSGGTIDYAAPVKDRFTISRDDSKNTLYLQMNSLKTEDTALYYCTWDWDFYYGMNVWGQGTTVTVSSGGGGSGGGGSGGGGSQSVLTQPASVSGSPGQSITISCTGTSSDVGGYNYVSWYQQHPGKAPKLMIYEGSKRPSGVSNRFSGSKSGNTASLTISGLQAEDEADYYCSSYTTRSTRVFGGGTKLTVLG
Turning to B13, the binding result is listed as “no binding”.

B14: GMBC625 (scFv)
scFv: EVQLVQSGGGLVKPGGSLRLSCAASGFTFSDAWMNWVRQAPGKGLEWVGRIKSKRSGGTIDYAAPVKDRFTISRDDSKDTMYLQMNSLKTEDTALYYCTWDWDFYYGMNVWGQGTMVTVSSGGGGSGGGGSGGGGSQSVLTQPASVSGSPGQSITISCTGTSSDVGGYNYVSWYQQHPGKAPKLMIYEGSKRPSGVSNRFFGSKSGNTASLTISGLQAEDEADYYCSSYTTRSTRVFGGGTKLTVLG
For B14, the binding result is “no binding”.

B15: GMBC645 (scFv)
scFv: EVQLVESGGGLVKPGGSLRLSCAGSGFKFSDAWMNWVRQAPGKGLEWVGRIKSKGSGGTIEYAAPVKDRFIISRDDSKDTLYLQMNSLKTEDTALYYCTWDWDFYYGMNVWGRGTLVTVSSGGGGSGGGGSGGGGSQSVLTQPASVSGSPGQSITISCTGTSSDVGGYNYVSWYQQHPGKAPKLMIYEGSKRPSGVSNRFSGSKSGNTASLTISGLQAEDEADYYCSSYTTRSTRVFGGGTELTVLG
As for B15, the binding result is recorded as “no binding”.

B16: GMBC649 (scFv)
scFv: QVQLVQSGGGLVKPGGSLRLSCAASGFTFSDAWMNWVRQAPGKGLEWVGRIKSKGSGGTIDYAAPVKDRFTISRDDSKNTLYLQMNSLKTEDTALYYCTWDWDFYYGMNVWGRGTLVTVSSGGGGSGGGGSGGGGSQSVLTQPASVSGSPGQSITISCTGTSSDVGGYNYVSWYQQHPGKAPKLMIYEGSKRPSGVSNRFSGSKSGNTASLTISGLQAEDEADYYCSSYTTRSTRVFGGGTKLTVLG
As for B16, the binding result is reported as “no binding”.

B17: GMBC670 (scFv)
scFv: EVQLVETGGGLVKPGGSLRLSCVASGFTFSDAWMNWVRQAPGKGLEWVGRIKSKGSGGTIDYAAPVKDRFIISRDDSKNTLYLQVNSLKTEDTALYYCTWDWDFYYGMNVWGQGTLVTVSSGGGGSGGGGSGGGGSQSVLTQPASVSGSPGQSITISCTGTSSDVGGYNYVSWYQQHPGKAPKLMIYEGSKRPSGVSNRFSGSKSGNTASLTISGLQAEDEADYYCSSYTTRSTRVFGGGTKLTVLG
Consider B17, for which the binding result is on record as “no binding”.

B18: GMBC667 (scFv)
scFv: QVQLQESGGGLVKPGGSLRLSCAGSGFPFSDAWMNWVRQAPGKGLEWVGRIKSKGSGGTIDYAAPVKDRFRISRDDSKNTLYLQMNSLNIEDTALYYCTWDWDFYYGMNVWGQGTTVTVSSGGGGSGGGGSGGGGSQSVLTQPASVSGSPGQSITISCTGTSSDVGGYNYVSWYQQHPGKAPKLMIYEGSKRPSGVSNRFSGSKSGNTASLTISGLQAEDEADYYCSSYTTRSTRVFGGGTKLTVLG
In the case of B18, the binding result is on record as “no binding”.
